{"source": "the nanobody polyreactivity screen of Harvey et al. (2022)"}
{"assay": "yeast display, Sf9 membrane polyspecificity reagent, FACS + sequencing; frameworks hold sequencing errors", "summary_of_the_method": "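A synthetic nanobody library was expressed on Saccharomyces cerevisiae BJ5465 by galactose induction for 36–48 hours. The library was stained for 1 hour at 4 °C with 10% biotinylated, detergent-solubilized Sf9 membrane reagent and enriched with streptavidin microbeads before FACS. Low and high (top ~1%) gates were set on anti-HA fluorescence for expression and streptavidin fluorescence for reagent binding, and each polyreactivity label reflects the gate of origin.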"}
{"sequence": "QVQLVESGGGLVQAGRSLRLSCPASGRTVVYNSLGWYRQAPGKETEFVAAITRSRDSTYYADSVKGRFTISRDNASNPVYLEMNSLKPEDSAAYYCNAVSKRYWLMDYWGQGTQVTVSS", "polyreactivity (PSR sort gate)": "high polyreactivity"}
{"sequence": "QVQLVESGGGLVQAGGSLRLSCAASGYMFGGYAMGWYRQAPGKAREFVAAISDISGSTYYADSVKGRFTISRDNAKNTVYLQMNSLKPEDTAVYYGGHTSTADEDYWGQGTQVTVSS", "polyreactivity (PSR sort gate)": "low polyreactivity"}
{"sequence": "QVQLVESGGGLVQAVGSLRLSSAASGFIFWYYAMGWYRQAPGKERELVAAISSGGGTNYADSVKGRFTISRDNAKNTVYLQMNSLKPEDYAVYYCAAYGPLTGYDYWGQGTQVTVSS", "polyreactivity (PSR sort gate)": "low polyreactivity"}
{"sequence": "QVQLVESGGGLVQAGGSLRLSCAASGFTFSTYAMGWYRQEPGKEREFVATISWRGTNTYYADSVKGRFTISRDNAKNTVYLQMNSLKPEDTAVYDCAARRRSGYGANDYWGQGTQVTVSS", "polyreactivity (PSR sort gate)": "high polyreactivity"}
{"sequence": "QVQLVESGGGLVQAGGSLRLSSAASGSIFDKNAMGWYRQAPGKERELVAAIRRTSTTYYADSVKGRFTISRDNAKNTVFLKMNSLKPEDTAVYYCAATYGSGYWYPRYYYWGQGTEVTVSS", "polyreactivity (PSR sort gate)": "high polyreactivity"}
{"sequence": "QVQLVESGGGLVQAGGSLRLSCAASGSTFYVYAMGWYRQAPGKERELVAAINFNGGGTYYADSVKGRFTISRDNAKNTVYLQMNSLKPEDTAVYYCYYLYNYWGQGTQVTVSS", "polyreactivity (PSR sort gate)": "low polyreactivity"}
{"sequence": "QVQLVESGGGLVQAGGSLRLSCAASGFIFTRYAMGWYRQAPGKERELVAGINRSGSRTYYADSVKGRFKISRDNAKNTVYLQMNSLKPEDTAVYYCATDTWYLYSTLDYWGQGTQVTVSS", "polyreactivity (PSR sort gate)": "high polyreactivity"}
{"sequence": "QVQLVESGGGLVQAGGSLRLSCAASGRIFGDYAMGWYRQAPGKERELVADITWSGGSTYYADSVKGRFTISRDNAKNTVYLQMNSLKPEDTAVYYCNADYDGGYYGDLSLYDYWGQGSQVTVSS", "polyreactivity (PSR sort gate)": "low polyreactivity"}
{"sequence": "QVQLVESGGGLVQAGGSLRLSCAASGSIFGTYAMGWYRQAPGKERELVAAISWSDGSTYYADSVKGRFTISRDNAKNTVYLQMNSLKPEDTAVYYCAKVYRSIGPNVSRYGLSYYYWGQGSQVTVSS", "polyreactivity (PSR sort gate)": "low polyreactivity"}
{"sequence": "QVQLVESGGGLVQAGGSLRLSCAASGRIFWYYNMGRYRQAPGKERELVASINSDTGTYYADSVKGRFTISRDNAKNTVYLQMNSLKPEDTAVYYCTRDSESDANTFTTSGIDEPYDYWGQGTQVTVSS", "polyreactivity (PSR sort gate)": "low polyreactivity"}
{"sequence": "QVQLVESGGGLVQAGGSLRLSCAASGRTFQGNVMGWYRQAPGKERELVAAISRSGSRTYYADSVKGRFTISRDNAKNTVYLQMNSLKPEDTAVYYCNALKSKRRQVIWYDYWGQGTQVTVSS", "polyreactivity (PSR sort gate)": "high polyreactivity"}
{"sequence": "QVQLVDSGGGLVQAGGSLRLSCAASGYTFVPYAMGWYRQAPGKERELVAAISSSGGDTYYADSVKGRFTISRDNAKTTVYLQLNSLKPEDTAVYYCNTGVYVWQYWYYGFDYWGQGTQVTVSS", "polyreactivity (PSR sort gate)": "low polyreactivity"}
{"sequence": "QVQLVESGGGLVQAGGSLRLSCAASGSIFWHNAMGWYRQAPGTEREFVAAISGSGGSTYYADSVKGRFTISRDNAKNTVYLQMISLKPEDTAVYYCAADIYYWSFYYSRYDYWGQGTQVTVSS", "polyreactivity (PSR sort gate)": "high polyreactivity"}
{"sequence": "QVQLVESGGGLVQAGGSLRLSCAATGRTFTVNPMGWYIQAPGKERELVAAITGSGGSTYYADSVKGRFTISRDNGKNTVYLQMNSLKPEDTAGYYCAADVNWFRWWSGSVELDYWGQGTQVTVTS", "polyreactivity (PSR sort gate)": "low polyreactivity"}
{"sequence": "QVQLVESGGGLVQAGGSLRLSCAASGRIFDVYAMGWYRQAPGKERELVASISWSDGSTYYADSVKGRFTLSRDNAKNTVYLQMNSLKPEDTAVYYCNALTELGGRWDDYWGQGTQVTVSS", "polyreactivity (PSR sort gate)": "low polyreactivity"}
{"sequence": "QVQLVESGGGLVQAGGSLRLSCAASGYIFYDNAMGWYRQAPGKERELVAAISRSGSRTRYADSVKGRFTISRDNAKNTVYLQMNSLKPEDTAVYYCNTRYAKYYYWGQGTQVTVSS", "polyreactivity (PSR sort gate)": "high polyreactivity"}
{"sequence": "QVQLVESGGGLVQAGGSLRLSCAASGRIFYVYAMGWYRQAPGKERELVATISWSAGITYYADSVKGRFTISRDNAKNTVYLQMNSMKPEDTAVYYCAKVGRYTYSGQYDYWGQGTQVTVSS", "polyreactivity (PSR sort gate)": "high polyreactivity"}
{"sequence": "QVQLVESGGGLVQAGGSLRLSCAASGITFRTNAMGSSRQAPGKERELVAAITTNGGNTYYADSVKGRFTISRDNAKNTVYLQMNSLKPEDTAVYYCNTATYVDSFPDPGDHWGQGTQVTVSS", "polyreactivity (PSR sort gate)": "low polyreactivity"}
{"sequence": "QVQLVESGGGLVQAGGSLRLSCAASGFTFYYYAMGGYSQAPGKERELVAAISSTGGSTYYADSVKGRFTISRDNAKNTVYLQMNSLKPEDTAVYYCNAAGYRYPGDYDFWGQGTQVTVSS", "polyreactivity (PSR sort gate)": "high polyreactivity"}
{"sequence": "QVQLVESGGGLVQAGGSLRLSCAASGSTLYGYVMGWYRQAPGKERELVADITWSGGSTYYADSVKGRFIISRDNAKNTVYLQMNSLKPEDTAVYYCNADRYGIYYYSRLPFDYWGQGTQVTVSS", "polyreactivity (PSR sort gate)": "low polyreactivity"}
{"sequence": "QVQLVESGGGLVQAGGSLRLSCAASGFIFYRNAMGWYRQAPGKERELVAAISVDGSTYYADSVKGRFTISRDNAKNTVYLQMNSQKPEDTAVYYCAAEYYSSYYQYVIYGYWGQGTQVTVSS", "polyreactivity (PSR sort gate)": "low polyreactivity"}
{"sequence": "QVQLVESGGGLVQAGGSLRLSCAASGFTFEKYVMGWYIQAPGKETEFVAAITRSGGRTYYADSVKGRFTISRDNAKNTVYLQMNSLKPEDTAVYSCNAVTSWAGSLDYWGQGTQVTVSS", "polyreactivity (PSR sort gate)": "high polyreactivity"}
{"sequence": "QVQLVESGGGLVQAGGSLRLSCAASGRTSARYGMGWYRQAPGKERELVASIRRSGDSTYYADSVKGRFTISRDNAKNTVYLQMNSLKPEDTAVYYCAAGGKQGKRDYWGQGTQVTVSS", "polyreactivity (PSR sort gate)": "low polyreactivity"}
{"sequence": "QVQLVESGGGIVQAGGSLRLSCAASGRTFPRYAMGWYRQAPGKERELVAAISVRAGITYYADSVKGRFTISRDNAKNTVYLQMNSLKPEDTAVYYCAKDHWTTSYDEGDYWGQGTQVTVSS", "polyreactivity (PSR sort gate)": "low polyreactivity"}
{"sequence": "QVQLVESGGGLVQAGGSLRLSCAASGYIFYGYAMGWYRQAPWKESEWVAAITVRGGSTYYADSVKGRFTISRDKAKNTVYLQKNSQKPEDTAVYYCAAAPQFTFGVGYWGQVTQVTVSS", "polyreactivity (PSR sort gate)": "low polyreactivity"}
{"sequence": "QDQLGESGGGLVQAGGSLRLSCAASGRTFNGYAMGWYRQAPGKVREFVAAITSNGARTYYADSVKGRFTISRDNAMNSVYLQMNSLKPEDTAVFYCAKRFARRSQRYDYWGQGTQVTVSS", "polyreactivity (PSR sort gate)": "high polyreactivity"}
{"sequence": "QVQLVESGGGLVQAGGSLRLSCAASGFTFTTNAMGWYRQAPGKERELVAAISKRGTRTYYADSVKGRFTISRDNAKNTVYLQMNSLKPEDTAVYYCAAASVAGDKFDYWGQGSQVTVSS", "polyreactivity (PSR sort gate)": "high polyreactivity"}
{"sequence": "QVQLVESGGGLVQAGGSLRLSCAASGSTLTYYTMGWYRQAPGKERELVARISWSSGRTYYADSVKGRFTISRDNAKNTVYLQMNSLKPEDTAVYYCNADRTYYRGLDYWGQGTQVTVSS", "polyreactivity (PSR sort gate)": "high polyreactivity"}
{"sequence": "QVQLVESGGGLVQAGGSLRLSCAASGSIFWYYAMGWYRQAPGKERELVAAISISGSTYYADSVKGRFTISRDNAKNTVYLQMNSLKPEDTAVYYCAARKFFWRSNYDYWGQGTQVTVSS", "polyreactivity (PSR sort gate)": "low polyreactivity"}
{"sequence": "QVKLVESGGGLVQARGSLRLSCAASGRIFTIYAKGWYRPAPGKERELVAAITRGGNTNYADSVKGRFTISRDNAKNTVYLQMNSLKPEDTAVYNCAARANVYTKKRDYWGQGTQVTVSS", "polyreactivity (PSR sort gate)": "high polyreactivity"}
{"sequence": "QVQLVESGGGLVQAGGSLRLSCAASGRTFYRYAMGWYRQAPGKEREFVARITTSGGSTYYADSVKGRFTISRDNAKNTVYLEMNSLKPEDTAVYYCAASAPYIYYWGQGTQVTVSS", "polyreactivity (PSR sort gate)": "high polyreactivity"}
{"sequence": "QVQLVESGGGLVQAGGSLRISCAAYGRIFGYYALGWYRQAPGKERELVAAITSGGSTNYADSVKGRFTISRDNAKNTVYLQMNSLKPEDTAVYYCAARSWYFSWEMYYWGQGTQVTVSS", "polyreactivity (PSR sort gate)": "high polyreactivity"}
{"sequence": "QVQLVESGGGLVQAGGSLRLSCAASGRTFAWYTMGWYRQAPGKERELVAAISGSGGSTYYADSVKGRFTISRDNAKNTVYLQMNSLKPEDTAVYYCSRRVDSYYGHTRYYYWGQGTQVTVSS", "polyreactivity (PSR sort gate)": "high polyreactivity"}
{"sequence": "QVQLVESGGGLVQAGGSLRLSCAASGITFAYNAMGWYRQAPGKERELVATISIGGNTNYADSVKGRFTISRDNAKNTVYLQMNSLKPEDTAVYYCNADFPHEGGFCYWGQGTQVTVSS", "polyreactivity (PSR sort gate)": "low polyreactivity"}
{"sequence": "QLQLVESGGGLVQAGGSLRLRCAASGRTFIRYAMGWYRPAPGKERELVAAISSRGGRTHYADSVKGRFTISRDNAKNTFYFQMNSLKPEDTAVYDCAADLNYGTVPGASYDYWGQGTQVTGSS", "polyreactivity (PSR sort gate)": "low polyreactivity"}
{"sequence": "QVQLVESGGGLVQAGGSLRLSCAASGSTFGPNAMGWYRQAPGNERELVAAITWSGDSTYYADSVKGRFTISRDNAKNTVYLQMNSLKPEDTAVYYCNTDRNVWYAGYDYWGQGTQVSVSS", "polyreactivity (PSR sort gate)": "low polyreactivity"}
{"sequence": "QVQLVESGGGLVQAGGSLRLSCADSGSTFRRKVMGWYRQAPGKERELVASIRSGGTTNYADSVKGRFTISRDNAKNTVYLQMNSLKPEDTAVYYCAAARSRGYYRASAEVLYGYWGQGTQVTVSS", "polyreactivity (PSR sort gate)": "high polyreactivity"}
{"sequence": "QVQLVESGGGLVQAGGSLRLSCAAYGGIFSYNAKGWYSQAPGKEREFVASISSSGGRTYYADSVKGRFTISRDNAQNTVYLQMKSLKPEDTAVYYCAKRGQLRHYSWGQGTQVTVSS", "polyreactivity (PSR sort gate)": "low polyreactivity"}
{"sequence": "QVQLVESGGGLVQAGGSLRLSCAASGRIFGGYAMGWYRQAPGKERELVATITANGGRTRYADSVKGRFTISRDNAKNTVYLQMNSLKPEDTAVYYCARVYYSSSGYGYWGQGTQVTVSS", "polyreactivity (PSR sort gate)": "high polyreactivity"}
{"sequence": "QVQLVESGGGLVQAGGSLRLSCAASGITFYRYAMRWYRQAPGKERELVAAISRSGGSTYYADSVKGRFTISRDNAKNTVYLQMNILKPEDTAVYYCAAYILGNRDGYDYWGQGTQVTVSS", "polyreactivity (PSR sort gate)": "high polyreactivity"}
{"sequence": "QVQLVESGGGLVQEGGSLGLSCAASGFIFVRYAMGWYRQAPGKERELVATITRGGGTYYADSVKARFTISRDNAKNTVYLQMKRLKPVDTAVYYCNKRGYSRYTGFGLDSWGQGTQVTVSS", "polyreactivity (PSR sort gate)": "high polyreactivity"}
{"sequence": "QVQLVESGGGLVQAGGSLRLSCAASGFIFGNYVMGWYRPAPGKERELVAAISESGSRTYYADSVKGRFTISRDNAKNTVYLQMNSLKPEDTAVYYCAAALFSYYGEYDYWGQGTQVTVSS", "polyreactivity (PSR sort gate)": "low polyreactivity"}
{"sequence": "QVQLVESGGGLVQAGGSLRLSCAASGIIFGYNVMGWYRQAPGKERELVAAIRYSGGSKYYADSVKGRFTISRDNAKNTVYLQMNSLKPEDTAVYYCAKAYRAAPRESYDYWGQGTQVTVSS", "polyreactivity (PSR sort gate)": "high polyreactivity"}
